Experimental data published in US8226967B2, “Surface active proteins as excipients in solid pharmaceutical formulations” (BASF SE, priority 2008, dated 2012).

B1: SC: class I hydrophobin from Schizophyllum commune, accession P16933, recombinant his-tagged from E. coli (protein, UniProt P16933 25-136, looked up)
Class I hydrophobin SC3: GGHPGTTTPPVTTTVTVTTPPSTTTIAAGGTCTTGSLSCCNQVQSASSSPVTALLGLLGIVLSDLNVLVGISCSPLTVIGVGGSGCSAQTVCCENTQFNGLINIGCTPINIL
modifications: His tag
B2: PO: class I hydrophobin from Pleurotus ostreatus, accession CAA76494, recombinant from E. coli (protein, UniProt O60048 22-113, looked up)
Class I hydrophobin POH3: IPRTNPPAPTCTTGSLQCCNSVQAASNPVVGLLAGLLGIVLGPITGQVGLTCSPITVIGVGGTSCSAQTVCCNGNSFNGLIVVGCSPVNISL

What was measured:
Format in all cases: physicochemical
[1] = Release of indicator dye from gelatine capsules coated with alginate/hydrophobin biopolymer
Source text: (§1) For setting up the leakage experiments, gelatine capsules with a volume of 0.68 cm^3 (Capsulae operculatae Nr. 0, Pharmapol GmbH, D-25578 Dageling) are filled with the indicator dye bromo phenol blue. The capsules are filled with equal weight proportions of mannitol, sodium hydrogen carbonate, trisodium citrate dehydrogenate and water-soluble bromo phenol blue and closed by joining the upper and lower part of the capsule tightly. To avoid unspecific leakage from the capsule, the joint is sealed.
Filled and sealed capsules were submerged in a solution of 2% w/v alginate (E400) containing 200 μg/ml hydrophobin for 10 seconds. […] Crosslinking of alginate is accomplished by subsequent submerging in 0.1 M CaCl2. Subsequently, the capsules are dried at room temperature.
(§2) For testing the release of dye from the capsules after different surface treatments, the capsules are submerged in 50 ml 0.1 M HCl corresponding to a pH of 1.0 in order to mimic the acidic environment in the stomach. In a second setup, 0.4 U/ml pepsin are added to the 0.1 M HCl to test for resistance to a typical enzyme in the stomach juice. Quantification of the release is accomplished by computer aided optical evaluation of different areas of the solution in the immersion bath leading to arbitrary luminance units.
Hydrophobin SC is prepared and the gelatine capsules are filled with indicator dye as described above. Filled and sealed capsules are submerged in a solution of 2% w/v alginate (E400) containing 200 μg/ml hydrophobin.
Three hydrophobins are used to test if the modulation of the release kinetics of alginate coated gelatine capsules can be achieved with different hydrophobins. SC is prepared as described further above. Two additional hydrophobins are recombinantly produced in a similar procedure as described for SC. TT is from Talaromyces thermophilus and PO from Pleurotus ostreatus. Capsules are filled with indicator dye, sealed and immersed in a mixture of alginate and hydrophobin SC, TT or PO, respectively, as described in examples 1 and 2. As a control, an admixture of alginate and BSA is used. […]

[2] = Dissolution test of Traumeel S tablets coated with alginate/hydrophobin biopolymer; conditions: Traumeel S tablets coated with 2% alginate containing 200 μg/ml protein, 0.1 M HCl pH 1, ambient temperature, FIG. 5A
Procedure: Homeopathic Traumeel®S tablets (Heel GmbH, Baden Baden, Germany) are used for coating experiments. These tablets are highly soluble and are formulated based on lactose monohydrate and magnesium stearate. […] Tablets are then immersed immediately into a solution of 0.1 M CaCl2 and dried at room temperature. For the dissolution test, tablets are immersed in 50 ml 0.1 M HCl at room temperature.
Traumeel® S (Heel) tablets are coated with hydrophobin, and resistance to acidic conditions of pH 1.0 is tested in a dissolution assay. Traumeel® S tablets are submersed in a solution of 2% alginate, containing 200 μg/ml TT, PO, TR or SC, respectively. […] After short submersion, alginate-coated tablets are allowed to polymerise in 0.1M CaCl2 and dried over night at ambient temperature.
The incubation for the dissolution test is at ambient temperature in 0.1M HCl for 10 to 120 min. Results: The coating of tablets with a biopolymer consisting of alginate with an admixture of hydrophobin yields beneficial properties regarding sustained release of a pharmaceutical composition.

[3] = Dissolution of gelatine films with or without hydrophobin; conditions: gelatine with 200 μg/ml hydrophobin
Procedure: Gelatine (stained red, purchased from RUF, Quakenbrück, Germany) is solubilized in water or a SC-solution (final concentration 200 μg/ml). 500 μl solubilized gelatine is added per well of a 6-well macroplate. Gelatine is dried over night at 50° C. Then 500 μl H2O, 0.1 N HCl or 0.1 N HCl with 0.4 U/ml pepsin, respectively, are added to the wells.

[4] = Release of indicator dye from gelatine capsules coated by spraying with hydrophobin; conditions: for release of dye from capsules (retention of dye within the capsule): gelatine capsules sprayed with 200 μg/ml hydrophobin in water, 0.1 M HCl pH 1.0, interval of observation 2 hours, FIG. 1A
Source text: as §1
The filled and sealed capsules are sprayed using a commercially available nebuliser with a solution of 200 μg/ml SC in water.
as §2
The release of dye from capsules coated by spraying with hydrophobins or as a control with water, respectively, is assayed in an acidic environment to mimic stomach conditions. The amount of dye contained in the immersion bath is measured by optical evaluation and given as arbitrary luminance units.

| Molecule | resistance of coated capsules / onset of dye release, acidic environment ([1]; alginate with 200 μg/ml protein, pH 1.0, FIG. 3A) | release characteristics of capsules (dye release) ([1]; alginate-coated capsules, 200 μg/ml protein, 0.1 M HCl pH 1.0 with 0.4 U/ml pepsin, FIG. 2B) | resistance of capsules to acidic conditions (dye release) ([1]; capsules submerged in 2% w/v alginate containing 200 μg/ml protein, pH 1.0, FIG. 2A) | resistance to dissolution of the coated tablet (integrity of tablets) [2] | resistance to dissolution of the coated tablet (integrity of tablets) ([2]; listed as SC3) | dissolution of gelatine ([3]; dried, H2O, 0.1 N HCl or 0.1 N HCl with 0.4 U/ml pepsin, FIG. 5B) | dissolution of gelatine in an environment mimicking gastric juices ([3]; 0.1 N HCl, with or without 0.4 U/ml pepsin) | dissolution of the biopolymer gelatine in water ([3]; water) | release of dye from capsules (retention of dye within the capsule) [4] | release of dye from capsules (retention of dye within the capsule) ([4]; listed as SC3) | release of dye from capsules ([4]; sprayed gelatine capsules, 0.1 M HCl pH 1.0 with 0.4 U/ml pepsin, FIG. 1B) |
| --- | --- | --- | --- | --- | --- | --- | --- | --- | --- | --- | --- |
| B1 | increased resistance to stomach juices | essentially the same | comparable to that of gelatine capsules sprayed with hydrophobin | superior to the class II hydrophobin TR | delays the dissolution of the tablets significantly | inhibits the dissolution of gelatine | reduced | strongly hampered | prolonged retention of dye within the capsule | resistant to an acidic environment | same advantageous release characteristics |
| B2 |  |  |  | superior to the class II hydrophobin TR |  |  |  |  |  |  |  |
